Experimental data reported in article doi:10.1101/2021.01.21.427698.

Biological target: T1, human SEPT2 with a TEV-cleavable N-terminal His6-tag (human), Q15019
T1 chain: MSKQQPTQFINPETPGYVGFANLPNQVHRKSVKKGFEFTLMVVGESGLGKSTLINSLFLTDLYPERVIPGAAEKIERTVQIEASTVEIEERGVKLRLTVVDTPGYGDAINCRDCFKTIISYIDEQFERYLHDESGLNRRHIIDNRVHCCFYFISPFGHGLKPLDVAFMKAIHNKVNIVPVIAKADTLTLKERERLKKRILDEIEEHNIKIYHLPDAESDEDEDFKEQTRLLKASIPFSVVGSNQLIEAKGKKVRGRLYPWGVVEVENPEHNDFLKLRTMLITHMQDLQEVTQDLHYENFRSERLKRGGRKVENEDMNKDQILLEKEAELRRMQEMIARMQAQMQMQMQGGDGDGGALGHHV
Conditions: remark: other sources report otherwise

stoichiometry N: 1
B1: full-length human SEPT7 (untagged, as in the octamers), Q16181 1-437 (natural protein)
chain: MSVSARSAAAEERSVNSSTMVAQQKNLEGYVGFANLPNQVYRKSVKRGFEFTLMVVGESGLGKSTLINSLFLTDLYSPEYPGPSHRIKKTVQVEQSKVLIKEGGVQLLLTIVDTPGFGDAVDNSNCWQPVIDYIDSKFEDYLNAESRVNRRQMPDNRVQCCLYFIAPSGHGLKPLDIEFMKRLHEKVNIIPLIAKADTLTPEECQQFKKQIMKEIQEHKIKIYEFPETDDEEENKLVKKIKDRLPLAVVGSNTIIEVNGKRVRGRQYPWGVAEVENGEHCDFTILRNMLIRTHMQDLKDVTNNVHYENYRSRKLAAVTYNGVDNNKNKGQLTKSPLAQMEEERREHVAKMKKMEMEMEQVFEMKVKEKVQKLKDSEAELQRRHEQMKKNLEAQHKELEEKRRQFEDEKANWEAQQRILEQQNSSRTLEKNKKKGKIF
